In patent US20130337050A1 (IMMUNOFUTURE, published 2013):

B1: GST-mTfR1 (GST-fused recombinant protein of the partial sequence 321-329 of mouse transferrin receptor 1) (other, not shown: a dimerising Fc or GST)
chain: TQFPPSQSS

Experiments:
Experiment in all cases: amylose resin pull-down, western blotting with anti-GST antibody
[1] = target: B1
[2] = target: MBP-VP1 GH strand I (fused recombinant protein of VP1 GH strand I and MBP) (poliovirus)
[3] = target: MBP-VP1BC loop (fused recombinant protein of VP1BC loop and MBP) (poliovirus)

| Binder | binding result [1] | binding result [2] | binding result [3] |
| --- | --- | --- | --- |
| STKDLTTY (other) [MBP-VP1C terminal region (fused recombinant protein of VP1C terminal region and MBP)] | binds | – | – |
| B1 | – | binds | binds |
| SKVPLKDQSAALGDSLYGAASLNDFGILAVRVV (other) [MBP-VP1 GH strand II (fused recombinant protein of VP1 GH strand II and MBP)] | binds | – | – |
| ALGDSLYGAASLN (other) [MBP-VP1 GH loop (fused recombinant protein of VP1 GH loop and MBP)] | binds | – | – |
